In article PMC9482650, “Quantitative fragmentomics allow affinity mapping of interactomes” (Nature Communications, 2022) one finds pKd data, which are given here for four molecules.

For orientation: pKd means the negative decadic logarithm of the Kd, by convention in mol/L.

Assay in all cases: holdup assay
Holding throughout (design): key: below the threshold = too weak to quantify, mostly under pKd 3.1 to 4
Conditions in all cases: plain residues with an end cap or a label only (N-terminal biotin on a linker: ttds)

The target in experiment [1] is T1, NHERF1_2, O14745.
T1 sequence (O14745 149-244, limits assumed, looked up): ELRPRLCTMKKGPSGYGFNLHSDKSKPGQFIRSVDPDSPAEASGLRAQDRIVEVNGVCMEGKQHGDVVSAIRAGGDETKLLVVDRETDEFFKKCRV

The target of experiment [2] is T2, MPDZ_2, O75970.
T2 sequence (O75970 252-347, limits assumed, looked up): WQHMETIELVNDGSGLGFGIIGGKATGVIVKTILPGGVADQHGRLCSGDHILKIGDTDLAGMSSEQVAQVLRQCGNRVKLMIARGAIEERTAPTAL

The target in experiment [3] is T3, MAGI2_1, Q86UL8.
T3 sequence (Q86UL8 12-111, limits assumed, looked up): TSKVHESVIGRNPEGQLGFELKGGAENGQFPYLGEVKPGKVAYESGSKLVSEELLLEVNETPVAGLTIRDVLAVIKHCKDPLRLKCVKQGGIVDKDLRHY

Experiment [4] addresses Inadl_7, Q8NI35.
The target of experiment [5] is T4, PDZD7_1, Q9H5P4.
T4 sequence (Q9H5P4 81-178, limits assumed, looked up): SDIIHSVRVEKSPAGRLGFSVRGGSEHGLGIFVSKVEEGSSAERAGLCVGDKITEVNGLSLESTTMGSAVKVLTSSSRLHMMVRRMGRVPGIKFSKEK

The target of experiment [6] is AHNAK2, Q8IVF2.
Sequence of AHNAK2, Q8IVF2 (Q8IVF2 108-193): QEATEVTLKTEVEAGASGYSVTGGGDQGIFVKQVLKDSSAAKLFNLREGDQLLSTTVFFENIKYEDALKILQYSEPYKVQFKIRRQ
Experiment [7] has as its target MAGI1_3, Q96QZ7.
Experiment [8] has as its target RIMS1, Q86UR5.
Experiment [9] addresses T5, SHANK2, Q9UPX8.
T5 sequence (Q9UPX8 621-730, limits assumed, looked up): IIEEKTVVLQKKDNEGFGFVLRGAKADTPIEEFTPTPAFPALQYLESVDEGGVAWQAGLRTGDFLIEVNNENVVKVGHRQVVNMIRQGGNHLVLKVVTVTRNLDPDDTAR

For experiment [10], the target named is T6, PDZD2_1, O15018.
T6 sequence (O15018 80-192, limits assumed, looked up): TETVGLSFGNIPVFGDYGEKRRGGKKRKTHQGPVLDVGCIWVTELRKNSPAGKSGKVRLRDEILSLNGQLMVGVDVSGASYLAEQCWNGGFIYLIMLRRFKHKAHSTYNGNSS

In experiment [11] the target is PDZRN4_2, Q6ZMN7.
Sequence of PDZRN4_2, Q6ZMN7 (Q6ZMN7 389-498): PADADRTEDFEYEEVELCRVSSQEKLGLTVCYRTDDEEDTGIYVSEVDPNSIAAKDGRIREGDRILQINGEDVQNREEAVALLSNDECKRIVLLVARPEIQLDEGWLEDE
The target of experiment [12] is T7, PARD6B, Q9BYG5.
T7 sequence (Q9BYG5 152-260, limits assumed, looked up): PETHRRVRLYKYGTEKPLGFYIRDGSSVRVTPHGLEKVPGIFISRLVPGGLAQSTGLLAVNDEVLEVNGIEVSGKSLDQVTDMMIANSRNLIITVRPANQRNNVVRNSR

For experiment [13], the target named is PARD3_1, Q8TEW0.
Sequence of PARD3_1, Q8TEW0 (Q8TEW0 264-372): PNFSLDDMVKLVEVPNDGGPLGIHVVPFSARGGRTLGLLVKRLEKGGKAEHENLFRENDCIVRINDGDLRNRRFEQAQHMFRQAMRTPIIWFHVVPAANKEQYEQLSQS
Experiment [14] addresses T8, PDZD8, Q8NEN9.
T8 sequence (Q8NEN9 361-459, limits assumed, looked up): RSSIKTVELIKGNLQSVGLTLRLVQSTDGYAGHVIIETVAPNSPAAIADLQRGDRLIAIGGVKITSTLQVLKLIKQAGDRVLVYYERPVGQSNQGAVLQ

The target of experiment [15] is T9, GRIP1_1, Q9Y3R0.
T9 sequence (Q9Y3R0 48-146, limits assumed, looked up): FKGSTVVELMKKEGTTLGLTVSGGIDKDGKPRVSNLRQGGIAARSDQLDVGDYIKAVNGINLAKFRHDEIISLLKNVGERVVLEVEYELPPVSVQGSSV

In experiment [16] the target is SCRIB_4, Q14160.
Sequence of SCRIB_4, Q14160 (Q14160 1095-1204): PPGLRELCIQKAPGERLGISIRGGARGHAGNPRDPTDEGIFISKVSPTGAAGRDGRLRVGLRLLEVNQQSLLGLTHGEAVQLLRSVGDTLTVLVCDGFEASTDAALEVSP
Experiment [17] addresses T10, PDZD7_2, Q9H5P4.
T10 sequence (Q9H5P4 205-303, limits assumed, looked up): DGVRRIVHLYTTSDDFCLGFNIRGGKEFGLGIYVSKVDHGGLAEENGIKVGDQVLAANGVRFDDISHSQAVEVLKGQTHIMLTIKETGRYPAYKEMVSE

Experiment [18] concerns the target T11, LNX2_4, Q8N448.
T11 sequence (Q8N448 595-690, limits assumed, looked up): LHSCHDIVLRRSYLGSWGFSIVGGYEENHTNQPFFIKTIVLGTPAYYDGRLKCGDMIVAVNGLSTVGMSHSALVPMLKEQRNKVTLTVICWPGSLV

Experiment [19] addresses T12, SIPA1L2, Q9P2F8.
T12 sequence (Q9P2F8 945-1036, limits assumed, looked up): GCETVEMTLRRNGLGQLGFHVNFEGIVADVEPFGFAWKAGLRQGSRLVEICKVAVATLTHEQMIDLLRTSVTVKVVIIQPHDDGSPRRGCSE

In experiment [20] the target is T13, MPP1, Q00013.
T13 sequence (Q00013 66-162, limits assumed, looked up): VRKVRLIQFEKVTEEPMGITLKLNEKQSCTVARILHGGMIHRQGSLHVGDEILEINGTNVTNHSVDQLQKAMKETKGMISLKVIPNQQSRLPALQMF

In experiment [21] the target is T14, PDZRN3_2, Q9UPQ7.
T14 sequence (Q9UPQ7 414-513, limits assumed, looked up): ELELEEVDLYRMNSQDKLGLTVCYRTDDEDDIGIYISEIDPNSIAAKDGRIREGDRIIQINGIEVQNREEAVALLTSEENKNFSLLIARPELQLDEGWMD

The target of experiment [22] is SDCBP_1, O00560.
Sequence of SDCBP_1, O00560 (O00560 111-198): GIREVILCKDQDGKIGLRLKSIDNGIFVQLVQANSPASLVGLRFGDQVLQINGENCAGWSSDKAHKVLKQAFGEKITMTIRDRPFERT

Sequence of Inadl_7, Q8NI35 (Q8NI35 1219-1332): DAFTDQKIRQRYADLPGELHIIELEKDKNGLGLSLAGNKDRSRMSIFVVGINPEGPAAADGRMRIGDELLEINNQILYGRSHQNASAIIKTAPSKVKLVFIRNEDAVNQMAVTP
Sequence of RIMS1, Q86UR5 (Q86UR5 584-692): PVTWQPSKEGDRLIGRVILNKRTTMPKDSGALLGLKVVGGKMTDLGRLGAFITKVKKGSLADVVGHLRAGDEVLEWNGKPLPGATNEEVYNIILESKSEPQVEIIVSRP
Sequence of MAGI1_3, Q96QZ7 (Q96QZ7 638-725): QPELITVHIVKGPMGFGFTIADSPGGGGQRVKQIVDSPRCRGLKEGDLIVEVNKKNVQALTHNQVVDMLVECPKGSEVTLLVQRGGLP

B1: HPV67-E6, A4U7F2 (peptide)
chain: SRPQRTQTQV
With B1, the negative-log Kd (pKd) entry in experiment [1] is “below the threshold”; in experiment [2] it was “below the threshold”; in [3] it was “below the threshold”; in experiment [4], 4.46; in [5], “below the threshold”; in experiment [6], “below the threshold”. In addition, the pKd in [7] is 4.12; in experiment [8], “below the threshold”; in experiment [9], “below the threshold”; in experiment [10] it was “below the threshold”; in experiment [11] it was “below the threshold”; in experiment [12], “below the threshold”. Moreover, the pKd result in [13], in experiment [14], in [15], in [16], in experiment [17] and in experiment [18] was “below the threshold” each time. For the same molecule, the pKd result in experiment [19] is “below the threshold”; in [20] it was 5.26; in experiment [21], “below the threshold”; in [22], “below the threshold”.

B2: HPV16-E6, P03126 (peptide)
chain: SSRTRRETQL
Take B2: the pKd was 3.89 in experiment [1]; “below the threshold” in [2]; “below the threshold” in [3]; “below the threshold” in experiment [4]; “below the threshold” in [5]; “below the threshold” in experiment [6]. Also, the pKd was 4.16 in experiment [7]; “below the threshold” in [8]; “below the threshold” in [9]; “below the threshold” in [10]; “below the threshold” in [11]; “below the threshold” in [12]. The negative-log Kd (pKd) entry in [13], in [14], in experiment [15], in experiment [16], in [17] and in experiment [18] was “below the threshold” in each case. The pKd entry in experiment [19], in [20], in experiment [21] and in experiment [22] was “below the threshold” each time.

B3: ABCC4, O15439 (peptide)
chain: STLTIFETAL
With B3, the pKd result was “below the threshold” in experiment [1]; “below the threshold” in experiment [2]; “below the threshold” in experiment [3]; “below the threshold” in experiment [4]; 4.25 in experiment [5]; “below the threshold” in experiment [6]. The pKd result in experiment [7] was “below the threshold”; in experiment [8] it was “below the threshold”; in [9], 4.85; in [10] it was 4.19; in [11], “below the threshold”; in experiment [12], “below the threshold”. Moreover, the pKd result in experiment [13] was “below the threshold”; in [14], “below the threshold”; in experiment [15], “below the threshold”; in experiment [16], 4.29; in experiment [17] it was 4.54; in experiment [18], “below the threshold”. Also, the pKd entry in experiment [19], in experiment [20], in [21] and in [22] was “below the threshold” in each case.

B4: TJP2, Q9UDY2 (peptide)
chain: QSARYRDTEL
With B4, the pKd entry in [1], in [2], in experiment [3], in experiment [4], in [5] and in experiment [6] was “below the threshold” each time. In addition, the pKd entry in [7], in experiment [8], in experiment [9], in experiment [10], in [11] and in experiment [12] was “below the threshold” throughout. Moreover, the pKd entry in experiment [13], in experiment [14], in experiment [15], in experiment [16], in experiment [17] and in [18] was “below the threshold” throughout. For the same molecule, the pKd result in [19], in [20], in experiment [21] and in [22] was “below the threshold” each time.
